Experimental data as given in the DeepSol protein solubility set.

Experiment: soluble on expression in E. coli; label from the status in PepcDB or PDB records

| Sequence | soluble on expression in E. coli |
| --- | --- |
| MQSVDVAIVGGGMVGLAVACGLQGSGLRVAVLDHVVPQPLANDASPQLRVSAINAASEKLLTRLGVWSNIVARRASCYHGMEVRDKDSFGRITFDDASMGYSHLGHIVENSVIHYALWQKAQQAADITLMAPAELQQVAWGENDAFLTLKDGAMLTARLVIAADGANSWLRNKADIPLTFWDYRHHALVATIRTEEPHGAVARQVFHGEGILAFLPLSDPHLCSIVWSLSPQDAERMQQSGDEAFNQALTIAFDNRLGLCRLESERQVFPLTGRYARQFAAHRLALVGDAAHTIHPLAGQGVNLGFMDAAELVDNLRRLQRQGKDIGQHLYLRRYERSRKHSAAMMLAGMQGFRDLFAGENPAKKLLRDIGLKLADTLPGVKPQLLRQAMGLNDLPQWLRLEHHHHHH | not soluble |
| AHHHHHHGSGGMTIAEKILATHAGKEEVKPGEIVLAKVDFMFGNDVTTPLAIKTFRKIGVEKVFDPERIAIVLDHFTPNKDIKAAEQCKFSREFAREQGIKWFFEGGNVGVEHCLLPELGLVLPGELIIGADSHTCTYGALGAFATGVGSTDLAVAMATGEAWFRVPETIKFVYEGDLQPWVTSKDLILYTIGDIGVNGALYKVMEFSGEVIEKLSVEQRMTMTNMAIEAGAKTGIIEPDKKTIEYVKGRAKREYKIYKSDEDAKYYKVIEYDVSKIEPQVAFPHLPENTVPISKAAKMNIKIDQVVIGSCTNGRLEDLRMAAEVLEGQKVAPWVRLIILPCSPTVYFKAMKEGLLEIFLEAGAVIGPPTCGPCLGGHMGILASGERAVSTTNRNFVGRMGHPKSEVYLASPYVAAASAILGRIASPEEVVK | soluble |
| EKLTLAEKVWRDHVVSKGENGEPDLLYIDLQLLHEVTSPQAFDGLRMTGRKLRHPELHLATEDHNVPTEGIKTGSLLEINDKISRLQVSTLRDNCEEFGVRLHPMGDVRQGIVHTVGPQLGATQPGMTIVCGDSHTSTHGAFGSMAFGIGTSEVEHVMATQTLPLKPFKT | not soluble |
| MSAFSAINEEREIERDEFTPGIEPQATWCPGCGDFGVLKALKQAMPEVGKNPDEVALFTGIGCSGKLNSYFNSYGFHTIHGRSLPVARAAKLANPNLEVIAAGGDGDGYGIGGNHTIHTARENHDMTYIVFNNEIFGLTKGQTSPTSPKGHKSKTQPHGSAKSPIRPLSQQLNAGATYIARTAAVNPNQAKEIIAEAIEHDGFAHIDFLTQCPTWNKDAKHYVPYTDVQQSDEFDFDVSDRAEAAEMMRKTEERLYEGEVLTGRMYIEDERPSYGEEKRQIGEMPEEPLAERYFDEDAEWERTYDNLLEHHK | not soluble |
| LTFSLNFATSSKDSYGTGWLIDWKGDENKPSNTDPFLIYLATNLHVVDALRNPQDYEPYNKDSNGQDYGNRDITHFFALGKYTDPGLLGVETKE | soluble |
| SLRLKISLLSPADSFEIDLNHSYHLASAIYRAIERADPSLSIELHKPDVPKFFTFSKLFIPKRKFRIEGEKMVSDCEEAYFFFSTLRNEVAASLVEGLLSKPEIRICGVDFIVSEVSVLPEREVKGREKFVTLSPIYASTSVGENGRRRIFDLYPKDSKFYEVILQNLVKKYVLYYKSAPENLDFHMKPLNVKAKRIRLKDTFHRCVEMVFKAEGSPELLDVGYKAGFGSKNSMGFGMVKVV | soluble |
| MAHHHHHHMFMVDTDGSAISYHIPVSPFVPLQHDKIDVTTVNRLANFGMRFAMEHGWCYNRHSGDAHSNYASEAVEEGYVESGEDVTVFFAGVDVELVGEFPKFDGKITPASVFFLGQFWISHVGKSSFGVYGKIFRYEAADEKNKFPIGVFKLTGVNVSKKSRRPVPIPKERAEMLLETMRRHQLNTSLPLVVRIDVADFLSRSGLFTDTTYCKLVDKMATYASVTPLTVTYRREFHIRQSDIDFNRHVNQMALIQFVINTFRSALLDQTTVFPRLLDVGVDAIVGDLLLRRLHIDYIRETPMGHQSVAVALFFAEDSSRDAVIASTPESRGNQLAELCFLAQGIPGDGSPSYIAAVGKLYFFC | not soluble |
| MGSETKHSAKVKIVTRESPPSAKEHMRPTKTQILVPPTQSLPNGKKPNFGKSTKQRREPRERTSKTGHEDDKATMVTVNIDAFLHDKAPKKKSCKYKKKKTRQYQDRAAASIDSKPHVAGHTAFAGASFTTDIPHEAALPKPSFV | soluble |
